Source: publication PMC5581011
Where two headings read alike, the source gives them in different places.

How the values were obtained:
[1] = target: gimsilumab (human); assay: ELISA; data not shown; rituximab and gimsilumab with sCA125, binding of CD16a-biotin
[2] = target: rituximab; assay: as above
[3] = target: mesothelin on CHO-MSLN cells (UniProt Q13421); assay: absorption (depletion) of sCA125 on cells; sCA125 preparation absorbed on CHO-MSLN cells or CHO-K1 parental cells; what is left in the supernatant
Chain of UniProt Q13421 (Q13421 other isoform, or with tags, fused parts or gaps): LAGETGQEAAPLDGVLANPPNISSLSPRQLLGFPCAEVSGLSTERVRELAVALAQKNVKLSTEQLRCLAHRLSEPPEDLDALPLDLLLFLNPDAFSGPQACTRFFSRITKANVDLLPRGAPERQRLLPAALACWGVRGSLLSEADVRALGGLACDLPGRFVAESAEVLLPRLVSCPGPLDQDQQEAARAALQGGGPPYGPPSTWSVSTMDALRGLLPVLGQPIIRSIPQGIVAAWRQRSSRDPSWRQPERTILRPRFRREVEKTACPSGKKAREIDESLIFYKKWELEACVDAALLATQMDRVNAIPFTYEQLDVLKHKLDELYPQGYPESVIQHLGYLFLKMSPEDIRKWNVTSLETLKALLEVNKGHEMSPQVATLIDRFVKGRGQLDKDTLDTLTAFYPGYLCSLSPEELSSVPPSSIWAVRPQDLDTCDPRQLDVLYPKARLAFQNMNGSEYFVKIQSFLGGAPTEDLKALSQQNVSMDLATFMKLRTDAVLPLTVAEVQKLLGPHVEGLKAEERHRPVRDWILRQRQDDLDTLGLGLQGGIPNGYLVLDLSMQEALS

[4] = target: farletuzumab, humanized IgG1 monoclonal antibody to folate receptor alpha (human (humanized IgG1)); assay: ELISA; unlabeled farletuzumab incubated alone or with sCA125 or HSA, probed with biotinylated CD16a, CD32a or CD64a; percent inhibition of Fc receptor binding compared to control
Chain of farletuzumab, humanized IgG1 monoclonal antibody to folate receptor alpha (human (humanized IgG1)) (heavy, as listed by the source, chain 1 of 2): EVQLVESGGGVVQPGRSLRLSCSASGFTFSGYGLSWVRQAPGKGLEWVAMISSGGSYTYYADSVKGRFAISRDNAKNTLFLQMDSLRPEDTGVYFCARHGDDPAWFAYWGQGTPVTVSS
Chain of farletuzumab, humanized IgG1 monoclonal antibody to folate receptor alpha (human (humanized IgG1)) (light, as listed by the source, chain 2 of 2): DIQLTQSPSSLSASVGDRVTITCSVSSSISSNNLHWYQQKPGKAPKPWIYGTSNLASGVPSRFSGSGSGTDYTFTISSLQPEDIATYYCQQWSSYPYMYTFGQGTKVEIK

[5] = target: farletuzumab, humanized IgG1 monoclonal antibody to folate receptor alpha (human (humanized IgG1)); assay: as above; remark: listed apart in the source

Chain of gimsilumab (human) (heavy, as listed by the source, chain 1 of 2): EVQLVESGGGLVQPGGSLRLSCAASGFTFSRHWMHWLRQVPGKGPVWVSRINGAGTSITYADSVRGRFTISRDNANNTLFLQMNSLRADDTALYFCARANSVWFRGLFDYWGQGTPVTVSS
Chain of gimsilumab (human) (light, as listed by the source, chain 2 of 2): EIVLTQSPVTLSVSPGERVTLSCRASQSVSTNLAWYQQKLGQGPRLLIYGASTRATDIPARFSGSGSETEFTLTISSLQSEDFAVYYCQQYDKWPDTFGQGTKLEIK

- percent inhibition of CD16a-biotin binding to the antibody [1]: < 50%
- percent inhibition of CD16a-biotin binding to the antibody [2]: < 50%
- percent of sCA125 removed by absorption on CHO-MSLN cells [3]: 98%
- percent inhibition of CD16a-biotin binding to farletuzumab [4]: 38 to 50%
- percent inhibition of CD16a-biotin binding to farletuzumab [5]: 46%
- percent inhibition of CD32a-biotin binding to farletuzumab [5]: 12%
Substance: soluble CA125 (sCA125), tumor-shed antigen CA125/MUC16 (from UniProt Q8WXI7 1-14507) (natural protein)
